From patent US20230190868A1 (NATIONAL UNIVERSITY OF SINGAPORE, published 2023)

Target: T1, cell-surface GRP78 (csGRP78) on mouse alveolar macrophages (primary AMs; MH-S cells) (mouse, UniProt P20029 20-655)
T1 construct: whole, on cells; Endogenous protein on mouse cells; the species follows from the cells used; also called Glucose-Regulated Protein 78 kDa
Assay: confocal immunofluorescence on non-permeabilized primary alveolar macrophages, 1 µM rISM1
Procedure: Cell-surface GRP78 (csGRP78) has been previously detected on mouse peritoneal macrophages (Misra, Gonzalez-Gronow et al., 2005) and human monocytes (Lu, Lai et al., 2010). Primary AMs were treated with recombinant ISM1 (rISM1) to determine if csGRP78 is present and serves as an ISM1 receptor on AMs. It was observed that rISM1 binds to csGRP78 on non-permeabilized AMs (FIG. 6C) and co-localized with GRP78 intracellularly (FIG. 6D), leading to AM apoptosis (FIG. 2K and FIG. 6E). Similarly, rISM1 induced apoptosis in immortalized mouse AM cells (MH-S) upon thapsigargin (TG) pretreatment (FIG. 6F), an ER stress inducer known to promote GRP78 translocation to the cell surface (Li, Ni et al., 2008). […] Increased AMs in Ism1^{Δ/Δ} lungs contributed towards protease-antiprotease imbalance, thus leading to spontaneous COPD in Ism1^{Δ/Δ} mice under ambient air.
(FIG. 6C). […] In FIG. 6C, representative confocal images of primary AMs for rISM1 (red) and GRP78 (green) co-localization after 1 µM rISM1 treatment for 1 hour are shown (Nuclei were stained with DAPI (blue)). Further, mouse AM cell line MH-S cells undergo ISM1 induced apoptosis when the cells were pre-treated with thapsigargin (TG), which induce ER stress and upregulate csGRP78. Denatured ISM1 (boiled) lost this pro-apoptotic function, indicating this pro-apoptotic activity is a function of the ISM1 protein. […]

T1 sequence (P20029 20-655): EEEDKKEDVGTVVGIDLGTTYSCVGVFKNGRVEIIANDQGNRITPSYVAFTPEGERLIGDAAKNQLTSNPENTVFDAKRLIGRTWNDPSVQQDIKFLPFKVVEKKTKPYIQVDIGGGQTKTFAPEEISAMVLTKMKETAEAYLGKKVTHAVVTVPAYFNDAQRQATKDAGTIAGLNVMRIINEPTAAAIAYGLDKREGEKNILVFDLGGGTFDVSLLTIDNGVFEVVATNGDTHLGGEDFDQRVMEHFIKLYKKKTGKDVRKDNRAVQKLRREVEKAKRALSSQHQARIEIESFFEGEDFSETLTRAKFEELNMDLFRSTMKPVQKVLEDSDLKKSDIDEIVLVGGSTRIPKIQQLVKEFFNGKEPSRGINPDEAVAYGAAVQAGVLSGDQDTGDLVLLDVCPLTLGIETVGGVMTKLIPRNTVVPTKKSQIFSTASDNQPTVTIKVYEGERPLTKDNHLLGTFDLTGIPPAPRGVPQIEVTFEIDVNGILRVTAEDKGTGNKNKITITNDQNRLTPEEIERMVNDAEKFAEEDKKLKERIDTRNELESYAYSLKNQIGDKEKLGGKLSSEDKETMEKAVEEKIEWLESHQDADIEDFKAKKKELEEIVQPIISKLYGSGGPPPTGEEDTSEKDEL

B1: recombinant ISM1 (rISM1), mouse mature form without signal peptide, 6xHis-tagged, expressed in E. coli (vector pET-M) (ligand)
chain: SDRQDAAAGNVSGSQLQNNLNLESDSTSETSFPLSKEAPEEHQVVHQPFPRQRFPPETGHPSLQRDGPRSFLLDLPNFPDLSKADINGQNPNIQVTIEVVDGPDSEAEKDQHPENKPSWSLPAPDWRAWWQRSLSLARTNSGDQDDKYDSTSDDSNFLSVPRGWDRPAPGHRTFETKEQPEYDSTDGEGDWSLWSVCSVTCGNGNQKRTRSCGYACIATESRTCDRPNCPGIEDTFRTAATEVSLLAGSEEFNATKLFEVDMDSCERWMSCKSEFLKKYMHKVINDLPSCPCSYPTEVAYSTADIFDRIKRKDFRWKDASGPKEKLEIYKPTARYCIRSMLSLESTTLAAQHCCYGDNMQLITRGKGAGTPNLISTEFSAELHYKVDVLPWIICKGDWSRYNEARPPNNGQKCTESPSDEDYIKQFQEAREYLEHHHHHH
notes: also called mouse rISM1
binding result: binds
